In patent US8501695B2, “Tissue kallikrein for the treatment of diseases associated with amyloid protein” (DiaMedica, Inc., priority 2007, dated 2013):

Key:
[1] = system: rat mixed cortical cultures (RMCC); test: Aβ1-42 toxicity in rat mixed cortical cultures, LDH measurement; type: cell-based
Description: (§1) Whether pre-treatment with tissue kallikrein protects rat mixed cortical cultures against exposure to human amyloid beta peptide (Aβ1-42) was investigated. Cell death was analyzed by LDH-release, an indication of necrosis, and cell viability was also analyzed by neuronal cell count. First (Study Arm A), tissue kallikrein was added to the cells only prior to the Aβ1-42 insult (at −24 h and at −30 min). Whereas in the second part (Study Arm B), tissue kallikrein was added to the cells prior to (−30 min) and also at +24 h after the Aβ1-42 insult. At the +24 h time point, cell culture media were not changed (tissue kallikrein or corresponding amount of vehicle was added to the wells), whereas at −24 h and −30 min time point cell culture media were changed.
(§2) […] Cell Culture. Mixed cortical cultures were prepared from E18 Wistar rat embryos (National Animal Center, Kuopio, Finland). The cortices were dissected out, and the tissue cut to small pieces. The cells were separated by 15-min incubation with DNase and papain. The cells were collected by centrifugation (1500 rpm, 5 min). The tissue was triturated with a pipette and the cells were plated on poly-L-lysine-coated 48-well plates, 300,000 cells/cm^2, in MEM (2 g/L glucose) supplemented with 2 mM glutamine, 0.1 μg/ml gentamicin, 10% heat-inactivated fetal bovine serum (FBS-HI) and 10% heat-inactivated horse serum (HS-HI). After 3-4 h, the media were changed to MEM (2 g/L glucose) supplemented with 2 mM glutamine, 0.1 μg/ml gentamicin, 5% HS-HI. After three days in vitro, media containing MEM (2 g/L glucose) supplemented with glutamine, gentamicin, and 5% of both sera were changed to the cells. On day 6 in vitro, the unwanted cell division was inhibited by adding cytosine arabinoside (10 μM final concentration) for 24 h. The cultures were refed with MEM (2 g/L glucose) supplemented with glutamine, gentamicin, and 5% HS-HI before experiments.
(§3) Aβ1-42 Exposure. Tissue kallikrein (SEQ ID NO:1) was dissolved and further diluted in MEM supplemented with glucose, glutamine, gentamicin, and 5% HS-HI. As a control for total neuronal death, 300 μM N-methyl-D-aspartic acid (NMDA) for 48 h was used, and 10 μM Aβ1-42 for 48 h was used to induce approximately 30-50% cell death. Wells treated with media only served as 0-control. Tissue kallikrein or vehicle was pipetted to the cells −24 h and −30 min before adding 10 μM Aβ1-42 (final concentration). Tissue kallikrein or vehicle was again pipetted to the cells at +24 h after exposure.
LDH Measurement. After 48 h, the culture media of all wells were collected, and possible cell debris was removed by centrifugation (13,000 rpm for 3 min). A 100 μl aliquot was pipetted into a microtiter plate as duplicates, and equal amount of LDH reagent was pipetted to the wells. The absorbance at 340 nm was measured immediately using a 3 min kinetic measurement protocol in Multiskan ELISA reader (Labsystems, Finland). The change in absorbance/min was determined, which was directly proportional to the released LDH. The remaining supernatant (50 μl) was snap-frozen in dry ice for storage.
(§4) Data Analysis. The number of wells per compound concentration used was 6 (n=6). Five concentrations of Tissue kallikrein were studied (0.001, 0.01, 0.1, 1, 10 μg/ml) in both study arms. Statistical analysis was performed using StatsDirect statistical software. The values were analyzed by one-way ANOVA followed by Dunnet's test (comparison to the vehicle-treated group). Results are presented as mean±standard deviation (SD) and differences are considered to be statistically significant at the P<0.05 level.

[2] = system: rat mixed cortical cultures (RMCC); test: Aβ1-42 toxicity in rat mixed cortical cultures, neuronal survival (NeuN cell count); type: cell-based
Description: as §1, §2, §3
Immunocytochemistry for Neuronal Survival. For neuronal counts, the cultures were fixed with 4% paraformaldehyde in 0.01 M PBS for 30 min and washed twice with PBS. The fixed cells were first permeabilized, and non-specific binding blocked by 30 min incubation with blocking buffer containing 1% bovine serum albumin and 0.3% Triton® X-100 in PBS. Anti-neuronal nuclei antibody (anti-NeuN, dilution 1:500, Chemicon, Temecula, Calif.) was used as the primary antibody. The cells were incubated with the primary antibody for 48 h, followed by incubation with a biotinylated secondary antibody (1:200, Vector Labs) for 2 h, and the avidin-biotin-peroxidase complex (ABC-reagent, 1:200, Vector ABC Elite Kit, Vector Labs) for 2 h. The positive cells were visualized using Ni-enhanced DAB as a substrate (DAB Substrate kit, Vector Labs). The NeuN immunopositive neurons were counted using a light microscope. Altogether, 2 fields of each well were counted. The results are shown as percent viable neurons.
as §4, with “Five concentrations of Tissue kallikrein were studied (0.001, 0.01, 0.1, 1, 10 μg/ml) in both study arms.” left out

B1: tissue kallikrein: serine protease that cleaves kininogen into kallidin; polypeptide SEQ ID NO:1 (Sus scrofa kallikrein 1), KLK1 from Sigma (protein, listed as Sus scrofa)
chain: MWSLVMRLALSLAGTGAAPPIQSRIIGGRECEKDSHPWQVAIYHYSSFQCGGVLVDPKWVLTAAHCKNDNYQVWLGRHNLFENEVTAQFFGVTADFPHPGFNLSLLKNHTKADGKDYSHDLMLLRLQSPAKITDAVKVLELPTQEPELGSTCQASGWGSIEPGPDDFEFPDEIQCVELTLLQNTFCADAHPDKVTESMLCAGYLPGGKDTCMGDSGGPLICNGMWQGITSWGHTPCGSANKPSIYTKLIFYLDWINDTITENP
modifications: 125I label in one form
[1]; 10 μg/ml, Study Arms A, B and C (all three treatment arms), FIG. 7
  LDH release following Aβ1-42 insult: statistically significant reduction of LDH release
[1]; Study Arm A (-24 h and -30 min), 10 μg/ml, 10 μM Aβ1-42
  LDH release following Aβ1-42 insult: significantly reduced LDH release
[1]; Study Arm A (-24 h and -30 min), 0.001, 0.01, 0.1 and 1.0 μg/ml, 10 μM Aβ1-42
  LDH release following Aβ1-42 insult: did not alter LDH release
[1]; Study Arm B (-30 min and +24 h), 1.0 μg/ml
  LDH release following Aβ1-42 insult: reduced LDH release
[1]; Study Arm B (-30 min and +24 h), 10 μg/ml
  LDH release following Aβ1-42 insult: statistically significant reduction of LDH release
[1]; Study Arm B (-30 min and +24 h), 0.001, 0.01 and 0.1 μg/ml, 10 μM Aβ1-42
  LDH release following Aβ1-42 insult: did not alter LDH release
[2]; Study Arm A, 1.0 μg/ml
  cell counts (survival) after Aβ1-42 insult: provided protection
[2]; Study Arm A, 10 μg/ml
  cell counts (survival) after Aβ1-42 insult: protection provided by 10 μg/ml was statistically significant
[2]; Study Arm A, lower concentrations
  cell counts (survival) after Aβ1-42 insult: did not affect cell counts
[2]; Study Arm B, 1.0 μg/ml
  cell counts (survival) after Aβ1-42 insult: Increases in cell counts
[2]; Study Arm B, 10 μg/ml
  cell counts (survival) after Aβ1-42 insult: protection provided by 10 μg/ml was statistically significant
[2]; Study Arm B, lower concentrations
  cell counts (survival) after Aβ1-42 insult: did not affect cell counts
